Reference: US20100199363A1, “ENZYMES FOR DEGRADING HERBICIDES” (priority 2006, published 2010)
Like-named read-outs stand apart in the source and are kept apart here.

Experiments:
[1] = tested on: GloxA; experiment: Substrate range of partially purified recombinant GloxA; type: biochemical, Arthrobacter sp. TBD; details: for Removal of substrate, Specific Activity: partially purified recombinant GloxA; for Removal of substrate, Relative Activity: relative to glyphosate = 100
Method: (§1) Crude enzyme extracts from E. coli cells were prepared as follows. Cells were harvested and the cell pellets resuspended in 1 mL lysis buffer (25 mM Tris-Cl pH 7.5 with 1 mgml^−1 lysosyme) and lysed by sonication on ice (Branson sonifier, 60% duty cycle, 30 seconds on, 30 seconds off for ten repeats). The soluble fraction was collected by centrifugation at 5000 g for 5 minutes and the protein content measured using Biorad protein dye-binding assay (BIORAD). Partially purified extracts were prepared by purification of the S-tagged or HIS-tagged GloxA protein from soluble CFE using S-protein agarose (Novagen) the Talon HIS-tag Purification System (BD Biosciences), according to manufacturer's instructions. Partially pure GloxA was eluted from the column using either 3M MgCl2 or 2.5 mM imidazole in the loading buffer. Enzyme reactions were prepared containing 500 μL crude enzyme extract or 250 μL partially purified enzyme extract (˜10 μg protein lysate) in 25 mM Tris-Cl pH7.5, 1 mM FAD, 0.1 mM MgCl2. After preincubation at 37° C. for 2 minutes, 1 mM glyphosate was added to the reaction, which was then incubated with shaking for a further 10-60 minutes. After the required reaction time, reactions were derivatized with tosyl chloride and analysed by HPLC as described above. All enzyme assays were performed in triplicate and repeated at least twice to confirm data. For determination of apparent kinetic parameters, substrate concentrations were varied over a suitable range, and the data fitted to a sum of exponential equations using Kaleidagraph (Synergy Software) or Hyper 1.1 (J. S. Easterby).

[2] = Resting cell biocatalytic assay of cells expressing recombinant GloxA; type: cell-based, E. coli
Method: (§2) Detection of glyphosate and AMPA by HPLC analysis was performed using a modified version of the method of Tomita et al. (1991) (Column: C18 4.6 uM, 5 Å column. Mobile Phase: 0.2MK2HPO4, 15% acetonitrile). Analytes were derivatized with tosyl chloride and detected at a wavelength of 240 nm. One ml of reaction supernatant was mixed with 0.5 mL 0.4MNaHPO4 pH 11.0, followed by addition of 200 μL tosyl chloride solution (10 mgmL^−1 p-toluene sulfonylchloride [Sigma] in acetonitrile). After incubation at 50° C. for 5 minutes, 20 μL of filtered reaction product was injected onto the HPLC for analysis.
The glyphosate-degrading protein was designated GloxA, and sub-cloning of gloxA into an expression vector and assaying for glyphosate-degrading activity confirmed cells expressing recombinant GloxA were able to degrade glyphosate, with resting cell biocatalytic assays having glyphosate-degrading activity of 300 μmol min^−1 mg wet cell mass^−1, and crude enzyme extracts having an activity of 841 μmolmin^−1mg total protein (Table 2). Of importance is that glycine was not detected as a product at this stage of the analysis of GloxA, and is presumed to have been rapidly metabolized by other enzymes contained within the E. coli resting cells and crude enzyme extract preparation.

[3] = GloxA enzyme assay with crude or partially purified extracts, HPLC after tosyl chloride derivatization; type: biochemical
Method: as §2, §1

[4] = Apparent kinetic parameters of GloxA, glyphosate as substrate; type: biochemical; details: herbicide glyphosate
Method: as §1, with “For determination of apparent kinetic parameters, substrate concentrations were varied over a suitable range, and the data fitted to a sum of exponential equations using Kaleidagraph (Synergy Software) or Hyper 1.1 (J. S. Easterby).” left out

[5] = Apparent kinetic parameters of GloxA, glufosinate as substrate; type: biochemical; details: herbicide glufosinate
Method: as §1, with “After preincubation at 37° C. for 2 minutes, 1 mM glyphosate was added to the reaction, which was then incubated with shaking for a further 10-60 minutes.” left out, “For determination of apparent kinetic parameters, substrate concentrations were varied over a suitable range, and the data fitted to a sum of exponential equations using Kaleidagraph (Synergy Software) or Hyper 1.1 (J. S. Easterby).” left out

[6] = Glyphosate degradation by GloxA-like homologous proteins, soluble cell-free extracts; type: biochemical; details: soluble cell-free protein extracts
Source text: Selected putative GloxA-like homologous proteins were then expressed and assayed for glyphosate degradative activity. The nucleotide coding sequences of selected putative homologues were commercially synthesised (Geneart, GmBH), cloned and expressed using the Champion pET200D/TOPO. Expression System (Invitrogen), according to manufacturer's instructions. Recombinant protein expression was verified and quantitated by Coomasie-stained SDS-PAGE analysis and spot-densitometry using AlphaImager 2200 visualization and documentation system (Alpha Innotech).
Enzymatic assays to assess glyphsate degradation were, performed using soluble cell-free protein extracts (partially purified protein) in a 1 ml volume containing 100 μg total cell-free protein (˜10 μg enzyme extract), 1 mM MgCl2, 1 mM glycine in 20 mM Tris-Cl pH 7.2. Negative controls included cell-free extracts from E. coli BL21 Star both containing no expression vector and containing pET200D/TOPO without an insert.

[7] = Side-by-side assay of GloxA and synthetic GOX extracts, glyphosate; type: biochemical; details: extracts assayed side-by-side, FIG. 4
Method: (§3) Crude enzyme extracts from E. coli cells were prepared as follows. Cells were harvested and the cell pellets resuspended in 1 mL lysis buffer (25 mM Tris-Cl pH 7.5 with 1 mgml^−1 lysosyme) and lysed by sonication on ice (Branson sonifier, 60% duty cycle, 30 seconds on, 30 seconds off for ten repeats). The soluble fraction was collected by centrifugation at 5000 g for 5 minutes and the protein content measured using Biorad protein dye-binding assay (BIORAD). Partially purified extracts were prepared by purification of the S-tagged or HIS-tagged GloxA protein from soluble CFE using S-protein agarose (Novagen) the Talon HIS-tag Purification System (BD Biosciences), according to manufacturer's instructions. […] After the required reaction time, reactions were derivatized with tosyl chloride and analysed by HPLC as described above. […]
(§4) For the purposes of direct comparison between the enzymes, a synthetic construct was made encoding the GOX gene based on SEQ ID NO:17 from U.S. Pat. No. 5,776,760. […] Soluble protein expression of GOX was optimized under varying temperature and IPTG conditions, and GOX protein expression detected by Coomasie-stained SDS-PAGE analysis and GOX enzymatic activity assayed as described above for GloxA, with HPLC analysis of activity to detect the removal of glyphosate and production of AMPA according to analytical methods above.

[8] = Side-by-side assay of GloxA and synthetic GOX extracts, iminodiacetic acid; type: biochemical; details: extracts assayed side-by-side, FIG. 4
Method: as §3, §4

[9] = tested on: A. thaliana var. Landsberg; experiment: Glyphosate tolerance of Arabidopsis plants expressing GloxA (Tolerance Score); type: in vivo, Arabidopsis thaliana; details: five times the normal dose (12.5 kga.i.ha^−1), Day 8 post-application of herbicide
Source text: FIG. 5. […] To obtain the Tolerance Score, plants were visually assessed for leaf health, plant radius and flowering on Day 8 post-application of herbicide. Untreated controls in perfect health scored 7-8 under the same system.
T1 seedlings can be transplanted and cultivated for seed through two generations to eventually isolate the homozygous T3 seeds. T2 and T3 plants were then screened for increased resistance to glyphosate, essentially using the methods described by Jander et al. (2003), but with A. thaliana var. Landsberg, not Columbia, and using treatment doses ranging from 2.5-25 kg a.i. ha^−1. The scores given in FIG. 5 are for a dose of 5× the expected I100 dose (12.5 kga.i.ha^−1)

[10] = GloxA enzyme assay with crude or partially purified extracts, HPLC after tosyl chloride derivatization; type: biochemical; details: for Glyphosate Removal: partially purified GloxA
[11] = herbicide glyphosate; Siehl et al. (2005), WO 92/00377; cited from earlier work
[12] = wildtype GOX, U.S. Pat. No. 5,776,760; cited from earlier work

NCP(=O)(O)O [AMPA, aminomethylphosphonic acid]
Removal of substrate, Specific Activity [1]: 602 μmolmin^−1 mg^−1 | Removal of substrate, Relative Activity [1]: 71%

O=C(O)CNCP(=O)(O)O [glyphosate, N-(phosphonomethyl)glycine]
Removal of substrate, Specific Activity [1]: 841 μmolmin^−1 mg^−1 | Removal of substrate, Relative Activity [1]: 100%

O=C(O)CNCC(=O)O [iminodiacetic acid]
Removal of substrate, Specific Activity [1]: 5013 μmolmin^−1 mg^−1 | Removal of substrate, Relative Activity [1]: 598%

B1: GloxA: 473 amino acid glyphosate-degrading putative oxidoreductase from Arthrobacter sp. TBD, SEQ ID NO:1 (protein)
chain: VKTTVFERNVPQTAVVSHALAGAAHRPYWIDHLQDSATRYPQLDGDAAADLVIVGGGYTGLWTALRAKERDPGRTVILLEGEQVAWAASGRNGGFCEASLTHGHENGKNRWPDELETLDRLGMENLDRMQEAVEKYAMDCEWERTGELNVAVEPHQVAWLQEDDTPGSVFLDQDAVRAEVNSPTYLAGRWHKDSVAMVHPYKLGLELARVATELGVVIYEGTRVRELNDHEHGVTVVTERGIVEAGHVVLGTNVFPSLLKRNQLMTVPVYDYALMTEPLTAEQLESIGWGKRQGIGDVANQFHYYRITKDHRILFGGYDALYFWGRRVDQKHEHQPATWEKIASHFFTTFPQLEGLKFTHKWAGPIDSSTQFCAFFGTARKGRVAYAAGFTGLGVGATAFAADVLLDLLAGLDTERTRLEMVRKRPLPFPPEPLASLGINLTRWSMDRADHNQGKRNIILKALDAVGLGFDS
modifications: Arthrobacter sp. TBD
Catalytic Activity, Removal of glyphosate [2]: 300 μmolmin^−1 mg^−1 wet cell mass | Specific Activity, Removal of glyphosate ([3]; Crude enzyme extract, approximate value): 841 μmolmin^−1 mg^−1 protein | glycine as a product ([3]; E. coli resting cells and crude enzyme extract preparation): not detected | Specific Activity, Production of glycine ([3]; PPE + FAD + Mg^2+): 548 μmolmin^−1 mg^−1 protein | production of AMPA from glyphosate ([3]; crude extracts and partially purified GloxA): no production | Glyphosate Removal ([3]; partially purified GloxA, Std (Mg^2+)): 856 µmol/min/mg | Specific Activity, Removal of glyphosate ([3]; partially purified enzyme extract, PPE + FAD + Mg^2+): 1590 μmolmin^−1 mg^−1 protein | Kcat [4]: 179.97 s⁻¹ | Km [4]: 56 µM | Kcat [5]: 158.9 s⁻¹ | Km [5]: 1200 µM | Partially Purified Activity [glyphosate degradation] [6]: 841 µmol/min/mg | specific activity towards glyphosate compared with GOX [7]: almost two fold higher | specific activity towards iminodiacetic acid compared with GOX [8]: 0.9 times less | tolerance to glyphosate (Tolerance Score) [9]: confers tolerance | Specific Activity, Production of glycine ([10]; PPE + FAD − Mg^2+): 413 μmolmin^−1 mg^−1 protein | Specific Activity, Removal of glyphosate ([10]; PPE + FAD − Mg^2+): 838 μmolmin^−1 mg^−1 protein | Specific Activity, Production of glycine ([10]; PPE − FAD + Mg^2+): 562 μmolmin^−1 mg^−1 protein | Specific Activity, Removal of glyphosate ([10]; PPE − FAD + Mg^2+): 1450 μmolmin^−1 mg^−1 protein | Glyphosate Removal ([10]; Co^2+): 1076 µmol/min/mg | Glyphosate Removal ([10]; No FAD): 520 µmol/min/mg | Glyphosate Removal ([10]; No Metals (+EDTA)): 432 µmol/min/mg | Glyphosate Removal ([10]; Zn^2+): 624 µmol/min/mg

B2: GOX: Glyphosate oxidoreductase producing AMPA and glyoxylate from glyphosate, SEQ ID NO:3 (protein)
chain: MSENHKKVGIAGAGIVGVCTALMLQRRGFKVTLIDPNPPGEGASFGNAGCFNGSSVVPMSMPGNLTSVPKWLLDPMGRCQSGSAISNHHAWLIRFLLAGRPNKVKEQAKALRNLIKSTVPLIKSLAEEADASHLIRHEGHLTVYRGEADFAKDRGGWELRRLNGVRTQILSADALRDFDPNLSHAFTKGILIEENGHTINPQGLVTLLFRRFIANGGEFVSARVIGFETEGRALKGITTTNGVLAVDAAVVAAGAHSKSLANSLGDDIPLDTERGYHIVIANPEAAPRIPTTDASGKFIATPMEMGLRVAGTVEFAGLTAAPNWKRAHVLYTHARKLLPALAPASSEERYSKWMGFRPSIPDSLPVIGRATRTPDVIYAFGHGHLGMTGAPMTATLVSELLAGEKTSIDISPFAPNRFGIGKSKQTGPAS
modifications: Pseudomonas sp. LBAA
Kcat [11]: 0.667 s⁻¹ | Km [11]: 25000 to 28000 µM | specific activity [12]: 15 nmolmin^−mg^−1
